Results on six molecules are retold here after patent publication US20210396761A1 (AICURIS, published 2021).

B1: pUL53 (50-292) (other)
chain: PSPADARPRLTLHDLHDIFREHPELELKYLNMMKMAITGKESICLPFNFHSHRQHTCLDISPYGNEQVSRIACTSCEDNRILPTASDAMVAFINQTSNIMKNRNFYYGFCKSSELLKLSTNQPPIFQIYYLLHAANHDIVPFMHAEDGRLHMHVIFENPDVHIPCDCITQMLTAAREDYSVTLNIVRDHVVISVLCHAVSASSVKIDVTILQRKIDEMDIPNDVSESFERYKELIQELCQSSG
B2: EBV BFLF2, C-terminally fused to the Flag epitope (pcDNA-BFLF2-Flag, pHM4698) (other)
chain: MAPVTPDAVNARQQRPADPALRRLMHPHHRNYTASKASAHSVKSVSRCGKSRSELGRMERVGSVARSICSRHTRHGVDRSHFSLRDFFRGISANFELGKDFLREMNTPIHVSEAVFLPLSLCTLSPGRCLRLSPFGHSLTLGSHCEICINRSQVHVPQEFSSTQLSFFNNVHKIIPNKTFYVSLLSSSPSAVKAGLSQPSLLYAYLVTGHFCGTICPIFSTNGKGRLIMHLLLQGTSLHIPETCLKLLCENIGPTYELAVDLVGDAFCIKVSPRDTVYEKAVNVDEDAIYEAIKDLECGDELRLQIINYTQLILENKQDYKDDDDK
notes: also called Flag-tagged BFLF2
B3: pUL50 (1-181) (other)
chain: MEMNKVLHQDLVQATRRILKLGPSELRVTDAGLICKNPNYSVCDAMLKTDTVYCVEYLLSYWESRTDHVPCFIFKNTGCAVSLCCFVRAPVKLVSPARHVGEFNVLKVNESLIVTLKDIEEIKPSAYGVLTKCVVRKSNSASVFNIELIAFGPENEGEYENLLRELYAKKAASTSLAVRNH
B4: His-tagged pUL50 (HCMV groove protein, soluble recombinant) (other)
chain: MEMNKVLHQDLVQATRRILKLGPSELRVTDAGLICKNPNYSVCDAMLKTDTVYCVEYLLSYWESRTDHVPCFIFKNTGCAVSLCCFVRAPVKLVSPARHVGEFNVLKVNESLIVTLKDIEEIKPSAYGVLTKCVVRKSNSASVFNIELIAFGPENEGEYENLLRELYAKKAASTS
notes: also called His-tagged groove protein
B5: MCMV pM53, C-terminally fused to the Flag epitope (pcDNA-M53-Flag, pHM4718) (other)
chain: MFRSPEGEERDAADREEEEGGEARRRSRMMMSPRRVKRARHRPAGSGLRTPLRSPSACRCSSPSPERQWQQRRRAEKRSTTPTDPPPPPKRSAASAAAGAAAPESEYLNVKLSELHDVFQRHPDLEQKYLKIMKLPITGKESIRLPFDFKSHRQHTCLDLSPYGNDQVSRSACTTCKETTRLPTASDSMVAFINQTSNVMKHRKFYFGFRKNMELLKMAANQPQLFQIYYIVQSCVQEIVPLIYYDREMAHMQLIFEKETVHIPSQCIEQILTVAKDAYGVSLDIAHQRITLTARCLRLESSSLRIDVLMLQRKVDELEIPNETNEKFESYSLDYKDDDDK
notes: also called pM53-Flag; Flag-tagged pM53
B6: MCMV pM50, C-terminally fused to the HA epitope (pcDNA-M50-HA, pHM4717) (other)
chain: MEIDKNVGADLISNTRRILRLDENELRITDTALICKNPNYSLCDAMLTTDIVYPVEYLLSYWECRSGRTACFVFKNTGCRVSLSCYIGFPERLKDLKRVCDFNFLSVNEALVVTLADIERIKPCDKGVLTNCVVRKSNSGMSYNIEVVAFGPDNEAEYQALLRDIYARRMTSVPTDCGSLICRRARCLAAAPPRRPPPPPPPGQRWGSLRKHGPVLTRRYAGGGGAAKNQPAAASPTSTSTSSPAAPSRDQDQTQRPPPAGDTNVTAAETTYSERTISFLTRHANAIHCALILAAAIALVLLWLLYWHAARSAGHP
notes: also called pM50-HA; HA-tagged pM50

Data set [1] concerns the molecule itself. Kind of data set: analytical size exclusion chromatography, self-association.
Data set [2] deals with T1, EBV BFRF1, C-terminally fused to the HA epitope (pcDNA-BFRF1-HA, pHM4697) (Epstein-Barr virus (EBV) strain B95-8, UniProt P03185 1-336).
T1 construct: also called EBC BFRF1-HA; HA-tagged BFRF1
T1 sequence: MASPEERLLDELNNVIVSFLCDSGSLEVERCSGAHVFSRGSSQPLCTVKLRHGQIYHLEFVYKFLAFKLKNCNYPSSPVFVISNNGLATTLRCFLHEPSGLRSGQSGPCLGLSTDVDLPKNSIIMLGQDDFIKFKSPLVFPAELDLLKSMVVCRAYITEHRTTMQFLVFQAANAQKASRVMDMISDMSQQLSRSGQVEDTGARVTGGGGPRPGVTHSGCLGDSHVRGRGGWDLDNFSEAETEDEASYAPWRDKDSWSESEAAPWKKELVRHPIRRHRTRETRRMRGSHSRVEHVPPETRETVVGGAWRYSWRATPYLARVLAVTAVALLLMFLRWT
Kind of data set: coimmunoprecipitation, transiently transfected 293T cells.

Data set [3] deals with T2, HCMV pUL50, C-terminally fused to the HA epitope (pcDNA-UL50-HA, pHM2589) (human cytomegalovirus (HCMV) strain …, UniProt P16791 1-397).
T2 sequence: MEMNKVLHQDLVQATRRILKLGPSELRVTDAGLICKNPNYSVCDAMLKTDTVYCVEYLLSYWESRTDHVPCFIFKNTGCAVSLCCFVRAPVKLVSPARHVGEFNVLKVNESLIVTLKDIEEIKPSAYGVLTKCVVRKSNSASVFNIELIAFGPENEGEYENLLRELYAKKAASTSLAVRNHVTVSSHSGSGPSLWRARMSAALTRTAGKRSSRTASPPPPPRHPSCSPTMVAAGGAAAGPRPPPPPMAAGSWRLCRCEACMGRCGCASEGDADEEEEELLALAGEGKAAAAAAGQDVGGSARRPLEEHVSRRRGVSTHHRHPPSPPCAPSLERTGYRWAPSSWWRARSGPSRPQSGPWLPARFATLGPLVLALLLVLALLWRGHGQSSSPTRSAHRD
Described as above.

Data set [4] deals with B1. Briefly: analytical size exclusion chromatography, coproduced in E. coli and also mixed in vitro. A general note: In gel filtration, larger molecules generally elute earlier.
Data set [5] deals with the molecule itself. Briefly: analytical size exclusion chromatography (Superdex 75 10/300).
Data set [6] concerns the target T3, pUL53 (HCMV hook protein, soluble recombinant) (human cytomegalovirus (HCMV), UniProt P16794 50-292).
T3 sequence: B1 chain
Briefly: direct ELISA, pUL53 coated, His-tagged pUL50 in serial dilutions, anti-His-HRP.

Data set [7] addresses T3, pUL53 (HCMV hook protein, soluble …). Briefly: direct ELISA, comparison of EC50 values.
Data set [8] deals with T4, VZV Orf24, C-terminally fused to the HA epitope (pcDNA-Orf24-HA, pHM4695) (varicella zoster virus (VZV) strain …, UniProt P09280 1-269).
T4 sequence: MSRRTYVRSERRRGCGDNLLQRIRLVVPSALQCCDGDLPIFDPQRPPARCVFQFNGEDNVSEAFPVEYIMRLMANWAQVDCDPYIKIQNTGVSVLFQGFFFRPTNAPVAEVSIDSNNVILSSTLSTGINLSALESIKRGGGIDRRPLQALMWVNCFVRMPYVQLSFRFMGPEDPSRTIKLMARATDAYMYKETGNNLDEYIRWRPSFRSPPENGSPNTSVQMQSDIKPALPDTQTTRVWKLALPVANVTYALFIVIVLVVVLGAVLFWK
Kind of data set: coimmunoprecipitation, transiently transfected 293T cells.

The target of data set [9] is B2. Described as above.

The term EC50 denotes the concentration giving half of the maximal effect.

In the case of B1, in data set [1], the binding result is recorded as “binds”. On to B2, for which the binding result in data set [2] is “binds”; in data set [3], “no binding”. In the case of B3, the results for the binding result in [4] and in [5] were “binds” and “no binding”, respectively. On to B4, for which, in data set [6], the concentration giving a half-maximal response (EC50) stood at 6.2 nM. Moreover, in [7], the “fold stronger than the BFRF1-BFLF2 interaction of EBV” value is about 20 fold.

On to B5, for which the binding result in data set [3] was “binds”; in [8], “no binding”. For the molecule B6, in data set [9], the binding result is “no binding”.
